Patent US20200181263A1 (NUMAB THERAPEUTICS, published 2020)

T1: cyno CD3 (cyno, UniProt Q95LI5 22-117)
T1 sequence (looked up): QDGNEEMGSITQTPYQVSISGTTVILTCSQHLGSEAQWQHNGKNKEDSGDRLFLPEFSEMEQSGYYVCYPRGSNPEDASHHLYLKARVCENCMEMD

T2: human IL-23 receptor ECD (human, UniProt Q5VWK5 24-355)
T2 construct: extracellular domain
T2 sequence (looked up): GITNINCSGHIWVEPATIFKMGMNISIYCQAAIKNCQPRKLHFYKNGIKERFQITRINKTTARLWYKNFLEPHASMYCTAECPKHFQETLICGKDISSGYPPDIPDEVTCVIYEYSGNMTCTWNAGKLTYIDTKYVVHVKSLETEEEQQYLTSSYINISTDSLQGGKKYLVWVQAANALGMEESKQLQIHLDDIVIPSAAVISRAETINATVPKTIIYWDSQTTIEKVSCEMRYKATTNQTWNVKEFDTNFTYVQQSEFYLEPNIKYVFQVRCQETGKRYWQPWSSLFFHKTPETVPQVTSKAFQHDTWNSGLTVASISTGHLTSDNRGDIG

B1: PRO736 (other)
chain 1: DIQMTQSPSSLSASVGDRVTITCQASENIYSFLAWYQQKPGKAPKLLIYSASKLAAGVPSRFSGSGSGTDFTLTISSLQPEDFATYYCQQTNRYSNPDIYNVFGTGTKVTVLGGGGGSGGGGSGGGGSGGGGSEVQLVESGGGLVQPGGSLRLSCAASGIDFNSNYYMCWVRQAPGKGLEWIGCIYVGSHVNTYYANWAKGRFTISRDNSKNTVYLQMNSLRAEDTAVYYCATSGSSVLYFKFWGQGTLVTVSSGGGGSGGGGSDIQMTQSPSSLSASVGDRVTITCQSSQSVFSNNYLAWFQQKPGQSPKRLIYSASTLASGVPSRFSGSGSGTDFTLTISSLQPEDFATYYCLGSYACSSADCYVFGCGTKVTVLGGGGGSGGGGSGGGGSDIQMTQSPSSLSASVGDRVTITCQSSESVYSNNQLSWYQQKPGQPPKLLIYDASDLASGVPSRFSGSGSGTDFTLTISSLQPEDFATYYCAGGFSSSSDTAFGGGTKLTVLG
chain 2: DIQMTQSPSSLSASVGDRVTITCQASENIYSFLAWYQQKPGKAPKLLIYSASKLAAGVPSRFSGSGSGTDFTLTISSLQPEDFATYYCQQTNRYSNPDIYNVFGTGTKVTVLGGGGGSGGGGSGGGGSGGGGSEVQLVESGGGLVQPGGSLRLSCAASGIDFNSNYYMCWVRQAPGKGLEWIGCIYVGSHVNTYYANWAKGRFTISRDNSKNTVYLQMNSLRAEDTAVYYCATSGSSVLYFKFWGQGTLVTVSSGGGGSGGGGSEVQLVESGGGLVQPGGSLRLSCAASGFSLSSYDMSWVRQAPGKCLAWIGASYASGPTYYASWAKGRFTISRDNSKNTVYLQMNSLRAEDTATYFCARGGWTGTSHSNIWGQGTLVTVSSGGGGSGGGGSGGGGSEVQLVESGGGLVQPGGSLRLSCAASGFSLSSNAMGWVRQAPGKGLEYIGIISVGGFTYYASWAKGRFTISRDNSKNTVYLQMNSLRAEDTATYFCARDRHGGDSSGAFYLWGQGTLVTVSS
notes: Hetero-dimeric MATCH, parallel; diS in anti-CD3 domain, 15 aa GS-linker
B2: PRO737 (other)
chain 1: DIQMTQSPSSLSASVGDRVTITCQASENIYSFLAWYQQKPGKAPKLLIYSASKLAAGVPSRFSGSGSGTDFTLTISSLQPEDFATYYCQQTNRYSNPDIYNVFGTGTKVTVLGGGGGSGGGGSGGGGSGGGGSEVQLVESGGGLVQPGGSLRLSCAASGIDFNSNYYMCWVRQAPGKGLEWIGCIYVGSHVNTYYANWAKGRFTISRDNSKNTVYLQMNSLRAEDTAVYYCATSGSSVLYFKFWGQGTLVTVSSGGGGSGGGGSDIQMTQSPSSLSASVGDRVTITCQSSESVYNNKRLSWYQQKPGKAPKLLIYTASSLASGVPSRFSGSGSGTDFTLTISSLQPEDFATYYCQGEFTCSNADCFTFGCGTKVTVLGGGGGSGGGGSGGGGSDIQMTQSPSSLSASVGDRVTITCQSSESVYSNNQLSWYQQKPGQPPKLLIYDASDLASGVPSRFSGSGSGTDFTLTISSLQPEDFATYYCAGGFSSSSDTAFGGGTKLTVLG
chain 2: DIQMTQSPSSLSASVGDRVTITCQASENIYSFLAWYQQKPGKAPKLLIYSASKLAAGVPSRFSGSGSGTDFTLTISSLQPEDFATYYCQQTNRYSNPDIYNVFGTGTKVTVLGGGGGSGGGGSGGGGSGGGGSEVQLVESGGGLVQPGGSLRLSCAASGIDFNSNYYMCWVRQAPGKGLEWIGCIYVGSHVNTYYANWAKGRFTISRDNSKNTVYLQMNSLRAEDTAVYYCATSGSSVLYFKFWGQGTLVTVSSGGGGSGGGGSEVQLVESGGGLVQPGGSLRLSCAASGFPLSSYAMIWVRQAPGKCLEWIGMILRAGNIYYASWVKGRFTISRDNSKNTVYLQMNSLRAEDTAVYYCARRHYNREGYPIGIGDLWGQGTLVTVSSGGGGSGGGGSGGGGSEVQLVESGGGLVQPGGSLRLSCAASGFSLSSNAMGWVRQAPGKGLEYIGIISVGGFTYYASWAKGRFTISRDNSKNTVYLQMNSLRAEDTATYFCARDRHGGDSSGAFYLWGQGTLVTVSS
notes: Hetero-dimeric MATCH, parallel; diS in anti-CD3 domain, 15 aa GS-linker, alternative anti-CD3
B3: PRO747 (other)
chain 1: DIQMTQSPSSLSASVGDRVTITCQASENIYSFLAWYQQKPGKAPKLLIYSASKLAAGVPSRFSGSGSGTDFTLTISSLQPEDFATYYCQQTNRYSNPDIYNVFGTGTKVTVLGGGGGSGGGGSGGGGSGGGGSEVQLVESGGGLVQPGGSLRLSCAASGIDFNSNYYMCWVRQAPGKGLEWIGCIYVGSHVNTYYANWAKGRFTISRDNSKNTVYLQMNSLRAEDTAVYYCATSGSSVLYFKFWGQGTLVTVSSGGGGSGGGGSDIQMTQSPSSLSASVGDRVTITCQSSQSVFSNNYLAWFQQKPGQSPKRLIYSASTLASGVPSRFSGSGSGTDFTLTISSLQPEDFATYYCLGSYACSSADCYVFGCGTKVTVLGAEAAAKEAAAKADIQMTQSPSSLSASVGDRVTITCQSSESVYSNNQLSWYQQKPGQPPKLLIYDASDLASGVPSRFSGSGSGTDFTLTISSLQPEDFATYYCAGGFSSSSDTAFGGGTKLTVLG
chain 2: DIQMTQSPSSLSASVGDRVTITCQASENIYSFLAWYQQKPGKAPKLLIYSASKLAAGVPSRFSGSGSGTDFTLTISSLQPEDFATYYCQQTNRYSNPDIYNVFGTGTKVTVLGGGGGSGGGGSGGGGSGGGGSEVQLVESGGGLVQPGGSLRLSCAASGIDFNSNYYMCWVRQAPGKGLEWIGCIYVGSHVNTYYANWAKGRFTISRDNSKNTVYLQMNSLRAEDTAVYYCATSGSSVLYFKFWGQGTLVTVSSGGGGSGGGGSEVQLVESGGGLVQPGGSLRLSCAASGFSLSSNAMGWVRQAPGKGLEYIGIISVGGFTYYASWAKGRFTISRDNSKNTVYLQMNSLRAEDTATYFCARDRHGGDSSGAFYLWGQGTLVTVSSAEAAAKEAAAKAEVQLVESGGGLVQPGGSLRLSCAASGFSLSSYDMSWVRQAPGKCLAWIGASYASGPTYYASWAKGRFTISRDNSKNTVYLQMNSLRAEDTATYFCARGGWTGTSHSNIWGQGTLVTVSS
notes: Hetero-dimeric MATCH, anti-parallel; diS in anti-CD3 domain, helical linker
B4: PRO741 (other)
chain 1: DIQMTQSPSSLSASVGDRVTITCQASENIYSFLAWYQQKPGKAPKLLIYSASKLAAGVPSRFSGSGSGTDFTLTISSLQPEDFATYYCQQTNRYSNPDIYNVFGTGTKVTVLGGGGGSGGGGSGGGGSGGGGSEVQLVESGGGLVQPGGSLRLSCAASGIDFNSNYYMCWVRQAPGKGLEWIGCIYVGSHVNTYYANWAKGRFTISRDNSKNTVYLQMNSLRAEDTAVYYCATSGSSVLYFKFWGQGTLVTVSSGGGGSGGGGSDIQMTQSPSSLSASVGDRVTITCQSSQSVFSNNYLAWFQQKPGQSPKRLIYSASTLASGVPSRFSGSGSGTDFTLTISSLQPEDFATYYCLGSYACSSADCYVFGCGTKVTVLGSGGGGSGGGGSDVVMTQSPSSLSASVGDRVTITCQASQIISSRSAWYQQKPGQPPKLLIYQASKLASGVPSRFSGSGSGTDFTLTISSLQPEDFATYYCQCTYIDSNFGAFGGGTKLTVLG
chain 2: DIQMTQSPSSLSASVGDRVTITCQASENIYSFLAWYQQKPGKAPKLLIYSASKLAAGVPSRFSGSGSGTDFTLTISSLQPEDFATYYCQQTNRYSNPDIYNVFGTGTKVTVLGGGGGSGGGGSGGGGSGGGGSEVQLVESGGGLVQPGGSLRLSCAASGIDFNSNYYMCWVRQAPGKGLEWIGCIYVGSHVNTYYANWAKGRFTISRDNSKNTVYLQMNSLRAEDTAVYYCATSGSSVLYFKFWGQGTLVTVSSGGGGSGGGGSEVQLVESGGGLVQPGGSLRLSCAASGFSFSSSYWICWVRQAPGKGLEWVGCVFTGDGTTYYASWAKGRFTISRDNSKNTVYLQMNSLRAEDTATYFCARPVSVYYYGMDLWGQGTLVTVSSSGGGGSGGGGSEVQLVESGGGLVQPGGSLRLSCAASGFSLSSYDMSWVRQAPGKCLAWIGASYASGPTYYASWAKGRFTISRDNSKNTVYLQMNSLRAEDTATYFCARGGWTGTSHSNIWGQGTLVTVSS
notes: Hetero-dimeric MATCH, anti-parallel; diS in anti-CD3 domain, 11 aa GS-linker, alternative anti-HSA
B5: PRO733 (other)
chain 1: DIQMTQSPSSLSASVGDRVTITCQASENIYSFLAWYQQKPGKAPKLLIYSASKLAAGVPSRFSGSGSGTDFTLTISSLQPEDFATYYCQQTNRYSNPDIYNVFGTGTKVTVLGGGGGSGGGGSGGGGSGGGGSEVQLVESGGGLVQPGGSLRLSCAASGIDFNSNYYMCWVRQAPGKGLEWIGCIYVGSHVNTYYANWAKGRFTISRDNSKNTVYLQMNSLRAEDTAVYYCATSGSSVLYFKFWGQGTLVTVSSGGGGSGGGGSDIQMTQSPSSLSASVGDRVTITCQSSESVYNNKRLSWYQQKPGKAPKLLIYTASSLASGVPSRFSGSGSGTDFTLTISSLQPEDFATYYCQGEFTCSNADCFTFGCGTKVTVLGSGGGGSGGGGSDIQMTQSPSSLSASVGDRVTITCQSSESVYSNNQLSWYQQKPGQPPKLLIYDASDLASGVPSRFSGSGSGTDFTLTISSLQPEDFATYYCAGGFSSSSDTAFGGGTKLTVLG
chain 2: DIQMTQSPSSLSASVGDRVTITCQASENIYSFLAWYQQKPGKAPKLLIYSASKLAAGVPSRFSGSGSGTDFTLTISSLQPEDFATYYCQQTNRYSNPDIYNVFGTGTKVTVLGGGGGSGGGGSGGGGSGGGGSEVQLVESGGGLVQPGGSLRLSCAASGIDFNSNYYMCWVRQAPGKGLEWIGCIYVGSHVNTYYANWAKGRFTISRDNSKNTVYLQMNSLRAEDTAVYYCATSGSSVLYFKFWGQGTLVTVSSGGGGSGGGGSEVQLVESGGGLVQPGGSLRLSCAASGFPLSSYAMIWVRQAPGKCLEWIGMILRAGNIYYASWVKGRFTISRDNSKNTVYLQMNSLRAEDTAVYYCARRHYNREGYPIGIGDLWGQGTLVTVSSSGGGGSGGGGSEVQLVESGGGLVQPGGSLRLSCAASGFSLSSNAMGWVRQAPGKGLEYIGIISVGGFTYYASWAKGRFTISRDNSKNTVYLQMNSLRAEDTATYFCARDRHGGDSSGAFYLWGQGTLVTVSS
notes: Hetero-dimeric MATCH, parallel; diS in anti-CD3 domain, 11 aa GS-linker, alternative anti-CD3

Columns and labels:
[1] = target: T3, human CD3 gamma-epsilon single-chain (human, UniProt P09693 23-103; P07766 23-118); test: SPR, target immobilised by amine coupling, binder as analyte
T3 construct: Recombinant protein immobilised on the SPR chip

[2] = target: T1, cyno CD3; test: as above
[3] = target: T4, human serum albumin (human, UniProt P02768 25-609); test: as above
T4 construct: also called HSA

[4] = target: T2, human IL-23 receptor ECD; test: as above
[5] = target: human IL23R IL12Rbeta 1 heterodimer on CHO-K1 cells (human, UniProt Q5VWK5 24-629; P42701 24-662); test: cell-based or functional assay

Binder	Kd [1]	Kd [2]	Kd [3]	Kd [4]	NFAT assay EC50 (T-cell activation, 5 h) [5]
B1	11.1 nM	8.37 nM	0.635 nM	0.0482 nM	–
B2	24 nM	56.7 nM	0.493 nM	0.0334 nM	–
B3	8.3 nM	6.64 nM	0.325 nM	0.0383 nM	1.45 nM
B4	7.58 nM	1.08 nM	0.338 nM	0.0378 nM	–
B5	26.5 nM	47.7 nM	0.495 nM	0.0366 nM	0.152 nM
